Measured values taken from patent US20140105905A1 (Amgen, published 2014).

How the values were obtained:
[1] = target: T1, recombinant human Interleukin-8 (human, UniProt P10145 28-99); assay: KinExA "Kinetics, Direct" method
T1 construct: also called rhIL-8; IL-8
T1 sequence (looked up): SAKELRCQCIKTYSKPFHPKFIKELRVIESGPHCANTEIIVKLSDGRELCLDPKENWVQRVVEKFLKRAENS
From the text: (§1) For measuring the association rate constant using KinExA, the same rhIL-8-coupled beads were used as the probe and the “Kinetics, Direct” method was used. The “Kinetics, Direct” experiments by KinExA are identical to KinExA equilibrium assays with respect to bead column height, antibody capture, antibody concentration and antibody detection. Briefly, the mAb was mixed with an amount of antigen that bound approximately 80% of the mAb in the equilibrium experiments and the free antibody present in the sample was probed repeatedly, pre-equilibrium. […] The volumes and flow rates of the antigen-mAb mixtures and the Cy5-labeled secondary antibody were varied depending upon the mAb tested. Data was analyzed utilizing the KinExA analysis software that comes with the KinExA 3000 instrument. This software graphically represents the decrease in binding signals over time, and fits the collected data points to an exact solution of the kinetic differential equations for binding. From this curve, an optimal solution for the kₒₙ is determined. The koff is indirectly calculated from solutions for the kₒₙ and Kd.
(§2) The on-rate measurement by KinExA is not limited by the mAb concentration used in the experiment. […] The concentration of mAb used for on-rate experiments was the same as those used in equilibrium binding experiments. An amount of IL-8 that bound 80% of the mAb in equilibrium binding experiments was mixed with the mAb. The amount of free mAb left in the mixture was measured in KinExA by flowing 1 ml of the mixture repeatedly through rhIL-8 coupled to NHS-activated Sepharose beads and detected using 1 ml of 2.0 μg/ml of Cy5-labeled goat anti-human IgG Fcγ fragment-specific secondary antibody. The kₒₙ was measured using the KinExA software by the “Kinetic, Direct” method and the 95% confidence intervals are given as kₒₙ range. The koff for the mAb was calculated from the measured kₒₙ and Kd of the respective mAb.

[2] = target: T1, recombinant human Interleukin-8; assay: calculated from KinExA kon and Kd
From the text: as §1, §2

[3] = target: T1, recombinant human Interleukin-8; assay: KinExA equilibrium in solution, 36 h, mAb 20 pM
Method: The experiments with KinExA were performed using an automated flow immunoassay system, KinExA 3000 [Ohmura et al., Anal. Chem. 73:3392, 2001] in which rhIL-8-coupled beads served as the solid phase. […] Antigen/antibody complexes were incubated at RT for 36 h to 144 h to allow equilibrium to be reached. The mixture was drawn through the rhIL-8-coupled beads to accumulate unbound antibody. The captured anti-hIL-8 mAb is directly proportional to the remaining free binding sites and was detected using solutions containing Cy5-conjugated anti-human secondary antibody in sample buffer. The concentrations, volumes, and flow rates of the secondary antibody solutions were varied to optimize the signal to noise ratio in each experiment. The bound signals were converted into relative values as a proportion of control in the absence of rhIL-8. The equilibrium dissociation constant (Kd) was obtained from nonlinear regression analysis of the data using a one-site homogeneous binding model contained within the software [Blake et Al., Anal. Biochem. 272:123, 1999; Jones et al., Bioconjug Chem 13:408, 2002]. […]
A proportionate amount of free mAb present in the equilibrium mixture was measured by flowing 0.25 ml to 3 ml of the sample on rhIL-8 coupled to CNBr-activated Sepharose beads and detected using 1.0 ml of 1.7 μg/ml of Cy5-labeled goat anti-human IgG Fcγ fragment-specific secondary antibody. […]

[4] = target: T2, IL-8 peptide ELRCQCIKTYSK (human); assay: overlapping IL-8 peptides on a membrane; column "Recognized epitope"
T2 peptide: ELRCQCIKTYSK
Method: Briefly, overlapping IL-8 peptides, which were each two amino acids c-terminal to the previous peptide (as shown in FIG. 8) were prepared and attached to a membrane. Antibodies were then added and allowed to bind to the peptides.

[5] = target: T1, recombinant human Interleukin-8; assay: not named in this sentence (summary of the filing's own affinity results)
[6] = target: T1, recombinant human Interleukin-8; assay: KinExA equilibrium, optimized, n-curve analysis, mAb 0.68, 2.0 and 13.7 pM
From the text: The equilibrium dissociation constant (Kd) was obtained from nonlinear regression analysis of the data using a one-site homogeneous binding model contained within the software [Blake et Al., Anal. Biochem. 272:123, 1999; Jones et al., Bioconjug Chem 13:408, 2002]. The software calculates the Kd and determines the 95% confidence interval by fitting the data points to a theoretical Kd curve. The 95% confidence interval is given as Kd low and Kd high.
A proportionate amount of free mAb present in the equilibrium mixture was measured in KinExA under optimized conditions. For example, for the mixtures containing the low concentration of mAb, 18-36 ml of the sample was flown through rhIL-8 coupled to NHS-activated Sepharose beads and detected using 1-2 ml of 2.0 μg/ml of Cy5-labeled goat anti-human IgG Fcγ fragment-specific secondary antibody. The Kd was calculated using KinExA software by using the “n-curve analysis” selection.

[7] = target: T1, recombinant human Interleukin-8; assay: KinExA equilibrium, low mAb concentration experiments analyzed in single curves
Method: Antigen/antibody complexes were incubated at RT for 36 h to 144 h to allow equilibrium to be reached. The mixture was drawn through the rhIL-8-coupled beads to accumulate unbound antibody. The captured anti-hIL-8 mAb is directly proportional to the remaining free binding sites and was detected using solutions containing Cy5-conjugated anti-human secondary antibody in sample buffer. The concentrations, volumes, and flow rates of the secondary antibody solutions were varied to optimize the signal to noise ratio in each experiment. The bound signals were converted into relative values as a proportion of control in the absence of rhIL-8. The equilibrium dissociation constant (Kd) was obtained from nonlinear regression analysis of the data using a one-site homogeneous binding model contained within the software [Blake et Al., Anal. Biochem. 272:123, 1999; Jones et al., Bioconjug Chem 13:408, 2002]. […]
A proportionate amount of free mAb present in the equilibrium mixture was measured in KinExA under optimized conditions. For example, for the mixtures containing the low concentration of mAb, 18-36 ml of the sample was flown through rhIL-8 coupled to NHS-activated Sepharose beads and detected using 1-2 ml of 2.0 μg/ml of Cy5-labeled goat anti-human IgG Fcγ fragment-specific secondary antibody. […]

kon [1]: 6e+06 M⁻¹ s⁻¹ | koff [2]: 3.7e-06 s⁻¹ | Kd [3]: 0.057 pM | binding result [4]: binds | Kd [5]: ~0.06 pM | Kd [6]: 0.613 pM | Kd [7]: 0.59 pM
B1: anti-hIL-8 mAb 928 (antibody, human IgG2, V domains shown)
VH: QVQLVESGGGVVQPGRSLRLSCAASGFTFSSYGMLWVRQAPGKGLEWVADISYDGSNKYYADSVKGRFTISRDNSKNTLYLQMNSLRAEDTAVFYCARDRIAVADYWGQGTLVTVSS
VL: EIVLTQSPGTLSLSPGERATLSCRASQSVSSSFLAWYQQKPGQAPRLLIYGASSRATGIPDRFSGSGSGTDFILTISRLEPEDFAVYYCQQYDSSFTFGPGTKVDIK
